Data as given in patent US20240066131A1 (Protagonist Therapeutics, Inc., priority 2020, published 2024).
Starred links: 1 amine or outer side, 2 acyl side, 3 side chain; linkers in the order of their positions; H or OH if unused. Positions of bridges follow the written chain, without caps; N, C: chain ends. Non-standard residues stand in square brackets, D forms with d. Groups on a side chain read outwards from the residue. Primed or numbered codes have the meaning given here. *: point of attachment. N‑(CH2CH2C(Ph)2H)Gly = N-substituted glycine carrying a 3,3-diphenylpropyl group, O=C(CN(CCC(c1ccccc1)c1ccccc1)[*:1])[*:2]; ButanoicP = (R)-4-(pyrrolidin-2-yl)butanoic acid, O=C(CCC[C@@H]1CCCN1[*:1])[*:2]; Ala(1H-tetrazol-5-yl) = N[C@@H](Cc1nnn[nH]1)C(=O)O; Dip = N[C@H](C(=O)O)C(c1ccccc1)c1ccccc1; His(τ-Me) = Cn1cnc(C[C@H](N)C(=O)O)c1; N(isopentyl)Gly′ = not defined here; Palmitoyl = CCCCCCCCCCCCCCCC(=O)*; β3hF = N[C@H](CC(=O)O)Cc1ccccc1; NMeK = CN[C@@H](CCCCN)C(=O)O; PEG4 = NCCOCCOCCOCCOCCC(=O)O; Isovaleryl = CC(C)CC(=O)*; IDA = iminodiacetic acid; Ahx = NCCCCCC(=O)O

T1: human ferroportin (SLC40A1) fused in frame with GFP, stably expressed in HEK293 cells (human, UniProt Q9NP59 1-571)
T1 sequence (looked up): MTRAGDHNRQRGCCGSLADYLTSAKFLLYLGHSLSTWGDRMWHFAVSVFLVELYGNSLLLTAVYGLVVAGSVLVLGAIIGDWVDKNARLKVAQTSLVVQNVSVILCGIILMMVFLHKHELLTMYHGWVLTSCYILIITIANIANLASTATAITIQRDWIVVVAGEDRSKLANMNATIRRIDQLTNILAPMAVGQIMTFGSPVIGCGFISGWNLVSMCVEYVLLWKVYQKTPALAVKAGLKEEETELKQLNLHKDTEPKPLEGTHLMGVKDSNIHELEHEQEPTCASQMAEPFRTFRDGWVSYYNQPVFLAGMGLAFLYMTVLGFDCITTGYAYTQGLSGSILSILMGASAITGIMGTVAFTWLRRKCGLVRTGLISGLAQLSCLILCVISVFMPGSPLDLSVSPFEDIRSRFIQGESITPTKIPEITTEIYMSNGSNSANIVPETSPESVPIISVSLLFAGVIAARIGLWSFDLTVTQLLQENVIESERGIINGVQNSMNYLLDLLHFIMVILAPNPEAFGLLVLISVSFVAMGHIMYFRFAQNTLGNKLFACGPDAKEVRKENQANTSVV


target: T1, human ferroportin (SLC40A1) fused in …; experiment: cell-based or functional assay

FPN EC50 [nM]	Binder
> 3000	Succinic_Acid-ETH[Dip]PIIK(Ac)[β3hF]-NH2 [[Succinic_Acid]-E-T-H-[Dpa]-P-I-I-[Lys(Ac)]-[bhPhe]-NH2]
> 3000	Gallic_Acid-ETH[Dip]PIIK(Ac)[β3hF]-NH2 [[Gallic_Acid]-E-T-H-[Dpa]-P-I-I-[Lys(Ac)]-[bhPhe]-NH2]
> 5000	{Isophthalic Acid}-ETH[Dip]PIIK(Ac)[β3hF]-NH2 [[Isophthalic Acid]-E-T-H-[Dpa]-P-I-I-[Lys(Ac)]-[bhPhe]-NH2]
> 3000	Isovaleryl-ATHKPEIK([Ahx-Palmitoyl])[β3hF]R-NH2 (lactam 4-6; SMILES CCCCCCCCCCCCCCCC(=O)NCCCCCC(=O)NCCCC[C@H](NC(=O)[C@@H](NC(=O)[C@@H]1CCC(=O)NCCCC[C@H](NC(=O)[C@H](Cc2c[nH]cn2)NC(=O)[C@@H](NC(=O)[C@H](C)NC(=O)CC(C)C)[C@@H](C)O)C(=O)N2CCC[C@H]2C(=O)N1)[C@@H](C)CC)C(=O)N[C@H](CC(=O)N[C@@H](CCCNC(=N)N)C(N)=O)Cc1ccccc1) [Isovaleric Acid-A-T-H-K-P-E-I-[Lys(Ahx_Palm)]-[bhPhe]-R-NH2; (K and E cyclized)]
> 3000	Isovaleryl-ET[N‑(CH2CH2-imidazol4-yl)Gly][Dip]PAIK([Ahx-Palmitoyl])[β3hF]-NH2 [Isovaleric Acid-E-T-[N-(CH2CH2-imidazol4-yl)Gly]-[Dpa]-P-A-I-[Lys(Ahx_Palm)]-[bhPhe]-NH2]
2230	Isovaleryl-E[N‑(CH2CH2OH)Gly]H[Dip]PAIK([Ahx-Palmitoyl])[β3hF]-NH2 [Isovaleric Acid-E-[N-(CH2CH2OH)Gly]-H-[Dpa]-P-A-I-[Lys(Ahx_Palm)]-[bhPhe]-NH2]
20.5	Isovaleryl-ETH[Dip][ButanoicP]K([Ahx-Palmitoyl])[β3hF]-NH2 [Isovaleric Acid-E-T-H-[Dpa]-[ButanoicP]-[Lys(Ahx_Palm)]-[bhPhe]-NH2]
> 5000	Pimelic_Acid-ETH[Dip]PIIK(Ac)[β3hF]-NH2 [[Pimelic_Acid]-E-T-H-[Dpa]-P-I-I-[Lys(Ac)]-[bhPhe]-NH2]
> 3000	Isovaleryl-ETH[N‑(CH2CH2C(Ph)2H)Gly]PAIK([Ahx-Palmitoyl])[β3hF]-NH2 [Isovaleric Acid-E-T-H-[N-(CH2CH2C(Ph)2H)Gly]-P-A-I-[Lys(Ahx_Palm)]-[bhPhe]-NH2]
> 3000	Isovaleryl-ATHEPKIK([Ahx-Palmitoyl])[β3hF]R-NH2 (lactam 4-6; SMILES CCCCCCCCCCCCCCCC(=O)NCCCCCC(=O)NCCCC[C@H](NC(=O)[C@@H](NC(=O)[C@@H]1CCCCNC(=O)CC[C@H](NC(=O)[C@H](Cc2c[nH]cn2)NC(=O)[C@@H](NC(=O)[C@H](C)NC(=O)CC(C)C)[C@@H](C)O)C(=O)N2CCC[C@H]2C(=O)N1)[C@@H](C)CC)C(=O)N[C@H](CC(=O)N[C@@H](CCCNC(=N)N)C(N)=O)Cc1ccccc1) [Isovaleric Acid-A-T-H-E-P-K-I-[Lys(Ahx_Palm)]-[bhPhe]-R-NH2; (E and K cyclized)]
63.1	Isovaleryl-[Ala(1H-tetrazol-5-yl)]T[His(τ-Me)][Dip]PAIK([Ahx-Palmitoyl])[β3hF]-NH2 (SMILES CCCCCCCCCCCCCCCC(=O)NCCCCCC(=O)NCCCC[C@H](NC(=O)[C@@H](NC(=O)[C@H](C)NC(=O)[C@@H]1CCCN1C(=O)[C@@H](NC(=O)[C@H](Cc1cn(C)cn1)NC(=O)[C@@H](NC(=O)[C@H](Cc1nnn[nH]1)NC(=O)CC(C)C)[C@@H](C)O)C(c1ccccc1)c1ccccc1)[C@@H](C)CC)C(=O)N[C@H](CC(N)=O)Cc1ccccc1) [Isovaleric Acid-[Tet1]-T-[(1Me)His]-[Dpa]-P-A-I-[Lys(Ahx_Palm)]-[bhPhe]-NH2]
202	Isovaleryl-[N‑(CH2CH2CH2CO2H)Gly]TH[Dip]PAIK([Ahx-Palmitoyl])[β3hF]-NH2 [Isovaleric Acid-[N-(CH2CH2CH2CO2H)Gly]-T-H-[Dpa]-P-A-I-[Lys(Ahx_Palm)]-[bhPhe]-NH2]
> 3000	Glutaric_Acid-ETH[Dip]PIIK(Ac)[β3hF]-NH2 [[Glutaric_Acid]-E-T-H-[Dpa]-P-I-I-[Lys(Ac)]-[bhPhe]-NH2]
> 5000	{IDA}-ETH[Dip]PIIK(Ac)[β3hF]-NH2 [[IDA]-E-T-H-[Dpa]-P-I-I-[Lys(Ac)]-[bhPhe]-NH2]

The next lines start with the binder.

Binder	FPN EC50 [nM]
Isovaleryl-ETH[Dip]PKIK([Ahx-Palmitoyl])[β3hF][dK]-NH2 (lactam 1-6 (inferred)) [Isovaleric Acid-E-T-H-[Dpa]-P-K-I-[Lys(Ahx_Palm)]-[bhPhe]-[(D)Lys]-NH2; (E and K cyclized)]	122
Isovaleryl-ATH[Dip]PKIE[β3hF]K([Ahx-Palmitoyl])R-NH2 (lactam 6-8; SMILES CCCCCCCCCCCCCCCC(=O)NCCCCCC(=O)NCCCC[C@H](NC(=O)C[C@H](Cc1ccccc1)NC(=O)[C@@H]1CCC(=O)NCCCC[C@H](NC(=O)[C@@H]2CCCN2C(=O)[C@@H](NC(=O)[C@H](Cc2c[nH]cn2)NC(=O)[C@@H](NC(=O)[C@H](C)NC(=O)CC(C)C)[C@@H](C)O)C(c2ccccc2)c2ccccc2)C(=O)N[C@@H]([C@@H](C)CC)C(=O)N1)C(=O)N[C@@H](CCCNC(=N)N)C(N)=O) [Isovaleric Acid-A-T-H-[Dpa]-P-K-I-E-[bhPhe]-[Lys(Ahx_Palm)]-R-NH2; (K and E cyclized)]	90.7
Isovaleryl-KTH[Dip]PAIK([Ahx-Palmitoyl])[β3hF]E-NH2 (lactam 1-10; SMILES CCCCCCCCCCCCCCCC(=O)NCCCCCC(=O)NCCCC[C@@H]1NC(=O)[C@H]([C@@H](C)CC)NC(=O)[C@H](C)NC(=O)[C@@H]2CCCN2C(=O)[C@H](C(c2ccccc2)c2ccccc2)NC(=O)[C@H](Cc2c[nH]cn2)NC(=O)[C@H]([C@@H](C)O)NC(=O)[C@@H](NC(=O)CC(C)C)CCCCNC(=O)CC[C@@H](C(N)=O)NC(=O)C[C@H](Cc2ccccc2)NC1=O) [Isovaleric Acid-K-T-H-[Dpa]-P-A-I-[Lys(Ahx_Palm)]-[bhPhe]-E-NH2; (K and E cyclized)]	184
Isovaleryl-ETH[Dip]PAIK([PEG4-Palmitoyl])[β3hF]-NH2 (SMILES CCCCCCCCCCCCCCCC(=O)NCCOCCOCCOCCOCCC(=O)NCCCC[C@H](NC(=O)[C@@H](NC(=O)[C@H](C)NC(=O)[C@@H]1CCCN1C(=O)[C@@H](NC(=O)[C@H](Cc1c[nH]cn1)NC(=O)[C@@H](NC(=O)[C@H](CCC(=O)O)NC(=O)CC(C)C)[C@@H](C)O)C(c1ccccc1)c1ccccc1)[C@@H](C)CC)C(=O)N[C@H](CC(N)=O)Cc1ccccc1) [Isovaleric Acid-E-T-H-[Dpa]-P-A-I-[Lys(2PEG4_Palm)]-[bhPhe]-NH2]	32.7
Isovaleryl-ETH[Dip]PAI[dK][β3hF]K([Ahx-Palmitoyl])[dK]-NH2 (SMILES CCCCCCCCCCCCCCCC(=O)NCCCCCC(=O)NCCCC[C@H](NC(=O)C[C@H](Cc1ccccc1)NC(=O)[C@@H](CCCCN)NC(=O)[C@@H](NC(=O)[C@H](C)NC(=O)[C@@H]1CCCN1C(=O)[C@@H](NC(=O)[C@H](Cc1c[nH]cn1)NC(=O)[C@@H](NC(=O)[C@H](CCC(=O)O)NC(=O)CC(C)C)[C@@H](C)O)C(c1ccccc1)c1ccccc1)[C@@H](C)CC)C(=O)N[C@H](CCCCN)C(N)=O) [Isovaleric Acid-E-T-H-[Dpa]-P-A-I-[(D)Lys]-[bhPhe]-[Lys(Ahx_Palm)]-[(D)Lys]-NH2]	45.5
Isovaleryl-ETH[Dip]P[N(Et)Gly]IK([Ahx-Palmitoyl])[β3hF]-NH2 [Isovaleric Acid-E-T-H-[Dpa]-P-[N-(Et)Gly]-I-[Lys(Ahx_Palm)]-[bhPhe]-NH2]	65.9
{3,3,3‑Trifluoro propionic acid}-ETH[Dip]PIIK(Ac)[β3hF]-NH2 [[3,3,3-Trifluoro propionic acid]-E-T-H-[Dpa]-P-I-I-[Lys(Ac)]-[bhPhe]-NH2]	5740
Isovaleryl-LT[His(τ-Me)][Dip]PAI[NMeK][β3hF]K([Ahx-Palmitoyl])-NH2 [Isovaleric Acid-L-T-[(1Me)His]-[Dpa]-P-A-I-[(N-Me)Lys)]-[bhPhe]-[Lys(Ahx_Palm)]-NH2]	95.9
Isovaleryl-ETH[Dip]PA[N(isopentyl)Gly′]K([Ahx-Palmitoyl])[β3hF]-NH2 [Isovaleric Acid-E-T-H-[Dpa]-P-A-[N-(isopenty1)Gly]-[Lys(Ahx_Palm)]-[bhPhe]-NH2]	13
Isovaleryl-[dE]TH[Dip]PIIK(Ac)[β3hF]-NH2 [Isovaleric Acid-[(D)Glu]-T-H-[Dpa]-P-I-I-[Lys(Ac)]-[bhPhe]-NH2]	1450
Isovaleryl-ETH[Dip]PAIK([Ahx-Palmitoyl])[N‑(CH2CH2Ph)Gly]-NH2 [Isovaleric Acid-E-T-H-[Dpa]-P-A-I-[Lys(Ahx_Palm)]-[N-(CH2CH2Ph)Gly]-NH2]	31.9
Isovaleryl-ATH[Dip]PEI[dK][β3hF]K([Ahx-Palmitoyl])R-NH2 (lactam 6-8; SMILES CCCCCCCCCCCCCCCC(=O)NCCCCCC(=O)NCCCC[C@H](NC(=O)C[C@H](Cc1ccccc1)NC(=O)[C@H]1CCCCNC(=O)CC[C@H](NC(=O)[C@@H]2CCCN2C(=O)[C@@H](NC(=O)[C@H](Cc2c[nH]cn2)NC(=O)[C@@H](NC(=O)[C@H](C)NC(=O)CC(C)C)[C@@H](C)O)C(c2ccccc2)c2ccccc2)C(=O)N[C@@H]([C@@H](C)CC)C(=O)N1)C(=O)N[C@@H](CCCNC(=N)N)C(N)=O) [Isovaleric Acid-A-T-H-[Dpa]-P-E-I-[(D)Lys]-[bhPhe]-[Lys(Ahx_Palm)]-R-NH2; (E and (D)Lys cyclized)]	61.2
Isovaleryl-LTH[Dip]PAI[NMeK][β3hF]K([Ahx-Palmitoyl])-NH2 (SMILES CCCCCCCCCCCCCCCC(=O)NCCCCCC(=O)NCCCC[C@H](NC(=O)C[C@H](Cc1ccccc1)NC(=O)[C@H](CCCCN)N(C)C(=O)[C@@H](NC(=O)[C@H](C)NC(=O)[C@@H]1CCCN1C(=O)[C@@H](NC(=O)[C@H](Cc1c[nH]cn1)NC(=O)[C@@H](NC(=O)[C@H](CC(C)C)NC(=O)CC(C)C)[C@@H](C)O)C(c1ccccc1)c1ccccc1)[C@@H](C)CC)C(N)=O) [Isovaleric Acid-L-T-H-[Dpa]-P-A-I-[(N-Me)Lys]-[bhPhe]-[Lys(Ahx_Palm)]-NH2]	103
{(3-Trifluoromethyl)butyric acid}-ETH[Dip]PIIK(Ac)[β3hF]-NH2 [[(3-Trifluoromethyl)butyric acid]-E-T-H-[Dpa]-P-I-I-[Lys(Ac)]-[bhPhe]-NH2]	2080
